The values that follow come from the RNAGym collection of RNA variant scans (doi:10.7554/elife.80360).

The chains are these.
B1: Twister Ribozyme (parent)
chain: AACACUGCCAAUGCCGGUCCCAAGCCCGGAUAAAAGUGGAGGGGGCGG

In the data set the parent is B1. As to the kind of experiment: self-cleavage, relative activity (ratio to wild type); higher = more cleavage; co-transcriptional.
As for A2U G13C, the self-cleavage was found to be 0.0514.

As for A22G G44U, the self-cleavage turned out to be 0.243.

Turning to C8A G36C, the self-cleavage was determined as 0.145.

For the variant G43U G48U, the self-cleavage was 0.198.

C25U U31A: the self-cleavage amounted to 0.666.

Consider C9A G28A, for which the self-cleavage is 0.598.

For the variant C15G G42A, the self-cleavage turned out to be 0.0628.

For A11G C46A, the self-cleavage is 0.808.

For the variant C14G G43C, the self-cleavage is 0.0465.

For C20U G29A, the self-cleavage was found to be 0.81.

As to A1U G29C, the self-cleavage worked out at 0.0876.

As for C27G G38A, the self-cleavage worked out at 0.0803.

As to C15U A33C, the self-cleavage is 0.839.

As for C8U C26U, the self-cleavage was found to be 0.061.

As for G7C G38A, the self-cleavage came out at 0.0835.

As to A1U A22U, the self-cleavage is 0.0726.

As to U12A G48U, the self-cleavage was found to be 1.18.

Regarding A4C A40U, the self-cleavage is 0.0853.

Take A4C A40C: the self-cleavage was 0.0698.

Turning to C19G A32C, the self-cleavage was 0.386.

With G28A G41U, the self-cleavage amounted to 0.397.

For the variant C20G C21U, the self-cleavage stood at 0.115.

Regarding A4G G41A, the self-cleavage was determined as 0.244.

Take C26A C46A: the self-cleavage is 0.338.

Turning to A4C A30C, the self-cleavage worked out at 0.0841.

With G29C A40U, the self-cleavage amounted to 0.101.

U12A C25U: the self-cleavage was 0.947.

On to C14U G38A, for which the self-cleavage was determined as 1.02.

For C3U A32C, the self-cleavage is 0.532.

In the case of C3A U37A, the self-cleavage was determined as 0.201.

In the case of C8A A33U, the self-cleavage is 0.28.

Consider C3G C9U, for which the self-cleavage came out at 0.191.

With C14U G42C, the self-cleavage came out at 0.59.

As to C8U G42C, the self-cleavage is 0.217.

For the variant A33C G42U, the self-cleavage turned out to be 0.188.

For G16A U37G, the self-cleavage is 0.195.

For the variant U37G A40U, the self-cleavage is 0.128.

Take C14A G41A: the self-cleavage was 0.591.

With C14U C20G, the self-cleavage is 0.2.

Turning to A11U C14U, the self-cleavage is 1.13.

Consider C9U C27A, for which the self-cleavage is 0.064.

C27G A33C: the self-cleavage is 0.0584.

As for U6A G29U, the self-cleavage was 0.767.

Turning to A34G C46U, the self-cleavage is 0.834.

Turning to G45C C46G, the self-cleavage is 1.61.

A10C G41U: the self-cleavage turned out to be 0.653.

Regarding C21G G36C, the self-cleavage is 0.0148.

For the variant C15G C46U, the self-cleavage turned out to be 0.075.

Take C27A G48U: the self-cleavage was 0.397.

Take C3G G41C: the self-cleavage came to 0.0954.

Turning to C8A A30G, the self-cleavage is 0.567.

For the variant A34U G47U, the self-cleavage was 0.502.

For the variant G16A A23C, the self-cleavage was 0.137.

With C3A A4G, the self-cleavage is 0.102.

As for A30G G41A, the self-cleavage was 0.666.

Regarding G28A G44U, the self-cleavage is 0.874.

Regarding C5G A23U, the self-cleavage was 0.136.

G39C G42A: the self-cleavage is 0.148.

A22G C27A: the self-cleavage was 0.0974.

Turning to C15G A23G, the self-cleavage amounted to 0.0653.

Take A2G G47C: the self-cleavage was 0.212.

Take G39A G47C: the self-cleavage came out at 0.137.

In the case of C9A A32G, the self-cleavage came out at 0.729.

In the case of C14G C19U, the self-cleavage amounted to 0.426.

Consider G13A G41U, for which the self-cleavage is 0.131.

For A1G A23C, the self-cleavage turned out to be 0.202.

On to G45U G48C, for which the self-cleavage worked out at 1.48.

Consider U6C G39A, for which the self-cleavage worked out at 0.273.

Turning to U6C G48A, the self-cleavage is 0.514.

As to C27G G39C, the self-cleavage was 0.105.

In the case of A4C C25G, the self-cleavage is 0.0395.

Take C3U G39U: the self-cleavage was determined as 0.066.

With A4U C27U, the self-cleavage was found to be 0.0803.

A30G G36A: the self-cleavage was 0.761.

On to A30G G36C, for which the self-cleavage was found to be 0.422.

Consider G7U G45U, for which the self-cleavage came out at 0.087.

On to C9A G41C, for which the self-cleavage came out at 0.123.

With A4G C25U, the self-cleavage was determined as 0.595.

In the case of A34U A35C, the self-cleavage was 0.892.

Take G41A C46U: the self-cleavage was determined as 0.612.

Consider C9G A22C, for which the self-cleavage stood at 0.708.

With C9U, the self-cleavage was found to be 0.754.

C9U G43C: the self-cleavage was determined as 0.151.

In the case of C19U A22G, the self-cleavage turned out to be 0.0788.

For A30U G48C, the self-cleavage was 1.07.

Take C21U G29U: the self-cleavage worked out at 0.0831.

With A10U G44U, the self-cleavage stood at 0.971.

For the variant A22G, the self-cleavage turned out to be 0.368.

Regarding A22U, the self-cleavage is 0.879.

On to A22C, for which the self-cleavage turned out to be 1.02.

U6G A34G: the self-cleavage came out at 0.392.

Regarding U18G A32U, the self-cleavage was 0.0793.

For A1C G24C, the self-cleavage turned out to be 0.168.

As to U12C G38A, the self-cleavage came out at 0.929.

For the variant A30U A32G, the self-cleavage was 0.928.

As to C9G U18A, the self-cleavage amounted to 0.108.

Regarding C3A G7A, the self-cleavage was 0.0709.

Consider C5U C21A, for which the self-cleavage was found to be 0.126.

Take C14G A30U: the self-cleavage was found to be 0.146.

Take U6G C8A: the self-cleavage was determined as 0.212.

Consider A10G C19A, for which the self-cleavage turned out to be 0.472.

Regarding C19G G48A, the self-cleavage amounted to 0.167.

A1U A35U: the self-cleavage amounted to 0.0666.

With A4U U18C, the self-cleavage was 0.027.

As to C9U G48C, the self-cleavage is 0.795.

Turning to A33C G45U, the self-cleavage came out at 0.71.

U6C G13U: the self-cleavage turned out to be 0.0523.

As to A11U C46A, the self-cleavage is 0.93.

For the variant A10G A34U, the self-cleavage was found to be 0.959.

As to G17A A35U, the self-cleavage is 0.869.

On to A34C G43U, for which the self-cleavage turned out to be 0.14.

In the case of C5G G39C, the self-cleavage was 0.106.

On to A2U U37G, for which the self-cleavage was found to be 0.214.

Regarding G16A C46U, the self-cleavage is 0.895.

As for C9A U37C, the self-cleavage worked out at 0.16.

Take A1G C15U: the self-cleavage is 0.405.

Regarding U12C C26U, the self-cleavage stood at 0.333.

Regarding A11G G42C, the self-cleavage amounted to 0.455.

For A4G A33U, the self-cleavage was 0.858.

In the case of A2G U18C, the self-cleavage is 0.102.

On to C5U G43A, for which the self-cleavage worked out at 0.141.

In the case of G7A C15G, the self-cleavage stood at 0.0625.

As for A1U A23C, the self-cleavage stood at 0.09.

On to U18A G43U, for which the self-cleavage came to 0.125.

As for G43C G48U, the self-cleavage was found to be 0.138.

Take G43C G45C: the self-cleavage was determined as 0.267.

Turning to G38U G47C, the self-cleavage came to 0.228.

Take A34C G42U: the self-cleavage came to 0.113.

For the variant C27U G28A, the self-cleavage is 0.478.

Take G28U A34G: the self-cleavage was 0.574.

For the variant U12C A34U, the self-cleavage was found to be 0.886.

G24A G48C: the self-cleavage is 0.112.

Turning to U12C G42U, the self-cleavage was 0.331.

Consider A4C C21G, for which the self-cleavage is 0.0577.

With G28C U37G, the self-cleavage stood at 0.144.

On to U12G U18G, for which the self-cleavage came out at 0.0252.

Turning to G41A G43C, the self-cleavage was 0.14.

Take A11G A33U: the self-cleavage came to 0.955.

For A1C A40U, the self-cleavage turned out to be 0.11.

For the variant A23U G41A, the self-cleavage amounted to 0.126.

As to A2U G16C, the self-cleavage was found to be 0.13.

In the case of G29U A33C, the self-cleavage is 0.821.

As to A23G G48U, the self-cleavage turned out to be 0.354.

In the case of G16A G28A, the self-cleavage was determined as 0.48.

For the variant C3G G17U, the self-cleavage is 0.0757.

For C21A U31G, the self-cleavage was 0.119.

On to C14U G41A, for which the self-cleavage came to 0.698.

A22U A40U: the self-cleavage is 0.128.

Consider G17U A33U, for which the self-cleavage amounted to 0.257.

G16U G24A: the self-cleavage amounted to 0.129.

G45C G47A: the self-cleavage worked out at 0.305.

As to C8G A23U, the self-cleavage is 0.103.

Turning to C3G A10C, the self-cleavage was determined as 0.28.

As to C3A C19A, the self-cleavage is 0.0415.

On to A1G U18C, for which the self-cleavage was determined as 0.335.

With A11C G43A, the self-cleavage is 0.167.

Consider A2U A30G, for which the self-cleavage came to 0.772.

In the case of G16C G41U, the self-cleavage is 0.103.

Regarding C14G A35U, the self-cleavage came to 0.125.

For the variant G17U G24C, the self-cleavage worked out at 0.0691.

Consider A23U C27A, for which the self-cleavage was found to be 0.0759.

G7U G38U: the self-cleavage came to 0.103.

For the variant C5A A10G, the self-cleavage is 0.705.

Turning to A1C A30G, the self-cleavage is 0.206.

With C5A A11G, the self-cleavage was determined as 0.479.

Take C20G G44A: the self-cleavage is 0.18.

In the case of C25G A30G, the self-cleavage was determined as 0.625.
